Assay [1] deals with T1, [D-Trp6]LHRH (Homo sapiens, UniProt P01148, D-Trp6 analog, 125I-labeled radioligand). Briefly: radioligand competition assay, tumor membranes (patient 4). On the technique in general: Loss of bound radioactivity is the signal in a displacement assay; it reports binding, not function.
Assay [2] concerns the target T1, [D-Trp6]LHRH. Put plainly: radioligand competition assay, tumor membranes (patient 35).
The target in assay [3] is T1, [D-Trp6]LHRH. Put plainly: radioligand competition assay, tumor membranes (patient 6).
In assay [4] the target is T1, [D-Trp6]LHRH. Put plainly: radioligand competition assay, tumor membranes (patient 12).
Assay [5] has as its target T1, [D-Trp6]LHRH. Briefly: radioligand competition assay, tumor membranes (patient 30).
The target in assay [6] is T1, [D-Trp6]LHRH. Briefly: radioligand competition assay, tumor membranes (patient 15).
Assay [7] addresses T1, [D-Trp6]LHRH. Briefly: radioligand competition assay, tumor membranes (patient 9).
Assay [8] concerns the target T1, [D-Trp6]LHRH. Briefly: radioligand competition assay, tumor membranes (mean of 7 specimens).

B1: type I LHRH receptor (protein)
chain: MANSASPEQNQNHCSAINNSIPLMQGNLPTLTLSGKIRVTVTFFLFLLSATFNASFLLKLQKWTQKKEKGKKLSRMKLLLKHLTLANLLETLIVMPLDGMWNITVQWYAGELLCKVLSYLKLFSMYAPAFMMVVISLDRSLAITRPLALKSNSKVGQSMVGLAWILSSVFAGPQLYIFRMIHLADSSGQTKVFSQCVTHCSFSQWWHQAFYNFFTFSCLFIIPLFIMLICNAKIIFTLTRVLHQDPHELQLNQSKNNIPRARLKTLKMTVAFATSFTVCWTPYYVLGIWYWFDPEMLNRLSDPVNHFFFLFAFLNPCFDPLIYGYFSL
By Kd is commonly meant the constant that tells how readily two partners part at equilibrium. Regarding B1, the dissociation constant (Kd) in assay [D-Trp6]LHRH [1] came out at 1.35 nM; in assay [D-Trp6]LHRH [2], 2.18 nM; in assay [D-Trp6]LHRH [3] it was 1.37 nM; in assay [D-Trp6]LHRH [4] it was 6.03 nM; in assay [D-Trp6]LHRH [5] it was 6.36 nM; in assay [D-Trp6]LHRH [6], 4.81 nM. Further, the dissociation constant Kd in assay [D-Trp6]LHRH [7] came to 3.73 nM; in assay [D-Trp6]LHRH [8], 3.69 nM.

(Values after article PMC3858558 (2013).)
